Consider seven molecules from patent US20050048073A1, “Methods of determining west nile virus epitopes and method of using the same” (priority 2001, published 2005).

Where “and” joins values, the source holds several entries; their conditions need not be identical. Equal entries are not always repeated.

One test addresses HLA B*07 (human). Kind of test: T2B7 HLA stabilisation assay, flow cytometry, 10/20/200 ug/ml, four assays.
Settings: not given
On the technique in general: A flow cytometer gives signals particle by particle.
RPAADGRTVM [WNVB7 0023] returned a Binding number (binding score) of 12.

For the molecule PEDIDCWCTK [WNVB7 3399], the Binding number (binding score) is 1 and the Binding results (total of four assays) (of 3 concentrations positive, in 1 assay) is 1.

Regarding VPGTKIAGML [WNVB7 0018], the Binding number (binding score) was 6; the Binding results (total of four assays) (of 3 concentrations positive, in 1 assay) was 3 and 2.

In the case of TPGLRCLNLD [WNVB7 0024], the Binding number (binding score) turned out to be 2.

As for PETPQGLAKI [WNVB7 3403], the Binding number (binding score) stood at 0.

RPQRHDEKTL [WNVB7 0019] had a Binding number (binding score) of 11 and a Binding results (total of four assays) (of 3 concentrations positive, in 1 assay) of 2.

SPHRVPNYNL [WNVB7 0020] had a Binding number (binding score) of 12.

The test is the same for the next values; noted with them: scale: of 3 concentrations positive, in 2 assays.
In the case of VPGTKIAGML [WNVB7 0018], the Binding results (total of four assays) turned out to be 1.

In turn, TPGLRCLNLD [WNVB7 0024] had a Binding results (total of four assays) of 1.

Staying with this test, now noted: scale: of 3 concentrations positive, in 3 assays.
RPQRHDEKTL [WNVB7 0019]: the Binding results (total of four assays) was 3.

Still in this test, the particulars now being: scale: of 3 concentrations positive, in 4 assays.
In turn, RPAADGRTVM [WNVB7 0023] had a Binding results (total of four assays) of 3.

On to PETPQGLAKI [WNVB7 3403], for which the Binding results (total of four assays) came to 0.

SPHRVPNYNL [WNVB7 0020] registered a Binding results (total of four assays) of 3.

A further test addresses HLA B*07 (human). In words: T2B7 HLA stabilisation assay, flow cytometry, peptide at 200 ug/ml.
Settings: not given
Consider RPAADGRTVM [WNVB7 0023], for which the Avg. Fold Inc. @ 200 (fold over background) was 1.5 and the Avg. MFI 200 was 979 MFI.

PEDIDCWCTK [WNVB7 3399] came in with an Avg. Fold Inc. @ 200 (fold over background) of 1.1 and an Avg. MFI 200 of 990 MFI.

In turn, VPGTKIAGML [WNVB7 0018] registered an Avg. Fold Inc. @ 200 (fold over background) of 1.7 and an Avg. MFI 200 of 1090 MFI.

As for TPGLRCLNLD [WNVB7 0024], the Avg. Fold Inc. @ 200 (fold over background) turned out to be 1 and the Avg. MFI 200 was found to be 850 MFI.

The molecule PETPQGLAKI [WNVB7 3403] showed an Avg. Fold Inc. @ 200 (fold over background) of 1 and an Avg. MFI 200 of 589 MFI.

Turning to RPQRHDEKTL [WNVB7 0019], the Avg. Fold Inc. @ 200 (fold over background) amounted to 2.8 and the Avg. MFI 200 is 1640 MFI.

In the case of SPHRVPNYNL [WNVB7 0020], the Avg. Fold Inc. @ 200 (fold over background) turned out to be 2.5 and the Avg. MFI 200 worked out at 1610 MFI.
